{
  "source": "patent US11001824",
  "about": "(UNIVERSITY OF GEORGIA RESEARCH FOUNDATION, dated 2021)",
  "binders": {"B1": {"name": "wild-type PNGase F from Flavobacterium meningosepticum (enzyme)", "chain": "GIPAPADNTVNIKTFDKVKNAFGDGLSQSAEGTFTFPADVTAVKTIKMFIKNECPNKTCDEWDRYANVYVKNKTTGEWYEIGRFITPYWVGTEKLPRGLEIDVTDFKSLLSGNTELKIYTETWLAKGREYSVDFDIVYGTPDYKYSAVVPVVQYNKSSIDGVPYGKAHTLALKKNIQLPTNTEKAYLRTTISGWGHAKPYDAGSRGCAEWCFRTHTIAINNSNTFQHQLGALGCSANPINNQSPGNWTPDRAGWCPGMAVPTRIDVLNNSLIGSTFSYEYKFQNWTNNGTNGDAFYAISSFVIAKSNTPISAPVVTNLDPHHHHHH", "notes": "also called wtPNGase F; 1PNF"}, "B2": {"name": "PNGase F clone R911 (D57L, D60C, I156L, G192I, E206S, R248W) (designed binder)", "chain": "B1 chain with D60L, D63C, I159L, G195I, E209S, R251W"}, "B3": {"name": "PNGase F clone R911 C60A (D57L, D60A, I156L, G192I, E206S, R248W) (designed binder)", "chain": "B1 chain with D60L, D63A, I159L, G195I, E209S, R251W"}, "B4": {"name": "PNGase F D60A single point mutant (enzyme)", "chain": "B1 chain with D63A", "notes": "also called D60A control clone"}},
  "key": {"[1]": {"target": "T1, denatured bovine pancreatic Ribonuclease B (bovine, UniProt P61823 27-150)", "T1 construct": "mature; also called dRNase B; denatured RNase B", "T1 sequence": "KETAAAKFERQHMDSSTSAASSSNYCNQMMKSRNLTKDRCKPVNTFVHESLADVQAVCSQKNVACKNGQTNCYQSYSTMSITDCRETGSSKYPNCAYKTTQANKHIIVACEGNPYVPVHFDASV", "assay": "SPR (Biacore 3000), dRNase B immobilised on CM5"}, "[2]": {"target": "T1, denatured bovine pancreatic …", "assay": "experimental binding free energy from SPR with dRNase B, relative to D60A"}, "[3]": {"target": "T1, denatured bovine pancreatic …", "assay": "SPR (Biacore 3000), dRNase B immobilised on CM5; calculated from KD"}, "[4]": {"target": "T1, denatured bovine pancreatic …", "assay": "SPR (Biacore 3000), dRNase B immobilised on CM5, steady state"}, "[5]": {"target": "T2, RNase B deglycosylated with PNGase F (bovine, UniProt P61823 27-150)", "T2 construct": "mature; also called deglycosylated RNase B", "T2 sequence": "T1 sequence with N34D", "assay": "R911 affinity chromatography"}, "[6]": {"target": "T1, denatured bovine pancreatic …", "assay": "experimental binding free energy from SPR with denatured RNase B"}, "[7]": {"target": "T3, Histone H2A type 1-B/E (human)", "T3 construct": "From MCF7 cell extract; also called H2A1B", "assay": "R911 affinity column, MCF7 cell extract, chitobiose elution, LC-MS/MS"}, "[8]": {"target": "T4, Histone H2A type 2-C (human)", "T4 construct": "From MCF7 cell extract; also called H2A2C", "assay": "R911 affinity column, MCF7 cell extract, chitobiose elution, LC-MS/MS"}, "[9]": {"target": "T5, Histone H2A.x (human, UniProt P16104 2-143)", "T5 construct": "From MCF7 cell extract", "assay": "R911 affinity column, MCF7 cell extract, chitobiose elution, LC-MS/MS"}, "[10]": {"target": "T6, Histone H2A.Z (human)", "T6 construct": "From MCF7 cell extract", "T6 sequence (chain, as listed by the source limits assumed)": "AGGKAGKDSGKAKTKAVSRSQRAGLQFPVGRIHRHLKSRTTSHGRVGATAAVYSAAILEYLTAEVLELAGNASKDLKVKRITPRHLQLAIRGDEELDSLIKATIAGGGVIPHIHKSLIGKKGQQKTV", "assay": "R911 affinity column, MCF7 cell extract, chitobiose elution, LC-MS/MS"}},
  "note": "Positions count from the first letter of the chain named. In names and notes the source's numbering stands.",
  "data": [
    {"binder": "B1", "values": [
      {"measurement": "koff", "setting": "[1]", "value": 0.01, "unit": "s⁻¹"},
      {"measurement": "ΔΔGBIND-EXP (relative to D60A)", "setting": "[2]", "value": 0.5, "unit": "kcal/mol"},
      {"measurement": "ΔGBIND-EXP", "setting": "[3]", "value": -7.1, "unit": "kcal/mol"},
      {"measurement": "Kd", "setting": "[4]", "value": 6400, "unit": "nM"}
    ]},
    {"binder": "B2", "values": [
      {"measurement": "Relative Affinity Enhancement (against D60A)", "setting": "[1]", "value": 10, "unit": "fold"},
      {"measurement": "Relative Off-Rate Enhancement (against D60A)", "setting": "[1]", "value": 84, "unit": "fold"},
      {"measurement": "koff", "setting": "[1]", "value": 0.0051, "unit": "s⁻¹"},
      {"measurement": "binding result", "setting": "[5]", "value": "no binding"},
      {"measurement": "ΔΔGBIND-EXP (relative to D60A)", "setting": "[2]", "value": -1.9, "unit": "kcal/mol"},
      {"measurement": "ΔGBIND-EXP", "setting": "[3]", "value": -8.99, "unit": "kcal/mol"},
      {"measurement": "ΔΔGBIND-EXP (relative to R911 C60A)", "setting": "[6]", "value": -1.2, "unit": "kcal/mol"},
      {"measurement": "Kd", "setting": "[4]", "value": 260, "unit": "nM"},
      {"measurement": "binding result", "setting": "[7]", "value": "binds"},
      {"measurement": "binding result", "setting": "[8]", "value": "binds"},
      {"measurement": "binding result", "setting": "[9]", "value": "binds"},
      {"measurement": "binding result", "setting": "[10]", "value": "binds"}
    ]},
    {"binder": "B3", "values": [
      {"measurement": "Relative Affinity Enhancement (against D60A)", "setting": "[1]", "value": 1.3, "unit": "fold"},
      {"measurement": "Relative Off-Rate Enhancement (against D60A)", "setting": "[1]", "value": 35, "unit": "fold"},
      {"measurement": "koff", "setting": "[1]", "value": 0.012, "unit": "s⁻¹"},
      {"measurement": "ΔΔGBIND-EXP (relative to D60A)", "setting": "[2]", "value": -0.7, "unit": "kcal/mol"},
      {"measurement": "ΔGBIND-EXP", "setting": "[3]", "value": -7.77, "unit": "kcal/mol"},
      {"measurement": "Kd", "setting": "[4]", "value": 2000, "unit": "nM"}
    ]},
    {"binder": "B4", "values": [
      {"measurement": "Relative Affinity Enhancement (against D60A)", "setting": "[1]", "value": 1, "unit": "fold"},
      {"measurement": "Relative Off-Rate Enhancement (against D60A)", "setting": "[1]", "value": 1, "unit": "fold"},
      {"measurement": "koff", "setting": "[1]", "value": 0.43, "unit": "s⁻¹"},
      {"measurement": "ΔGBIND-EXP", "setting": "[3]", "value": -7.61, "unit": "kcal/mol"},
      {"measurement": "Kd", "setting": "[4]", "value": 2700, "unit": "nM"}
    ]}
  ]
}
